# According to publication doi:10.1101/2024.10.29.620959v2:
# B1: FadD5 (Mycobacterium tuberculosis H37Rv) (protein)
# chain: MTAQLASHLTRALTLAQQQPYLARRQNWVNQLERHAMMQPDAPALRFVGNTMTWADLRRRVAALAGALSGRGVGFGDRVMILMLNRTEFVESVLAANMIGAIAVPLNFRLTPTEIAVLVEDCVAHVMLTEAALAPVAIGVRNIQPLLSVIVVAGGSSQDSVFGYEDLLNEAGDVHEPVDIPNDSPALIMYTSGTTGRPKGAVLTHANLTGQAMTALYTSGANINSDVGFVGVPLFHIAGIGNMLTGLLLGLPTVIYPLGAFDPGQLLDVLEAEKVTGIFLVPAQWQAVCTEQQARPRDLRLRVLSWGAAPAPDALLRQMSATFPETQILAAFGQTEMSPVTCMLLGEDAIAKRGSVGRVIPTVAARVVDQNMNDVPVGEVGEIVYRAPTLMSCYWNNPEATAEAFAGGWFHSGDLVRMDSDGYVWVVDRKKDMIISGGENIYCAELENVLASHPDIAEVAVIGRADEKWGEVPIAVAAVTNDDLRIEDLGEFLTDRLARYKHPKALEIVDALPRNPAGKVLKTELRLRYGACVNVERRSASAGFTERRENRQKL
# How the values were obtained:
# purified protein [1] = substrate: CCCCCCCCCCCCCCCC(=O)O; assay: purified protein; details: pH 7.5
# purified protein [2] = substrate: CCCCCCCCCCCC(=O)O; assay: purified protein; details: pH 7.5
protein,measurement,setting,value
B1,Km,purified protein [1],89.83 ± 9.71 µM
same,Km,purified protein [2],102 ± 8.55 µM
